Assays:
[1] = target: CoREST (UniProt Q8CFE3); test: FLAG co-immunoprecipitation, immunoblot quantitated with ImageJ; settings: NIH 3T3 cells transiently transfected; mean of two independent experiments; parent: est. 1.0; read off a plot
[2] = target: CoREST (UniProt Q8CFE3); test: co-immunoprecipitation of endogenous proteins (Lsd1 IP'ed with CoREST), immunoblot quantitated with ImageJ; settings: primary MEFs; mean of three independent experiments; p<0.001 vs wild type; parent: est. 1.0; read off a plot
[3] = target: CoREST (UniProt Q8CFE3); test: co-immunoprecipitation of endogenous proteins (CoREST IP'ed with Lsd1), immunoblot quantitated with ImageJ; settings: primary MEFs; mean of three independent experiments; p<0.005 vs wild type; parent: est. 1.0; read off a plot

UniProt Q8CFE3, sequence (Q8CFE3 whole entry): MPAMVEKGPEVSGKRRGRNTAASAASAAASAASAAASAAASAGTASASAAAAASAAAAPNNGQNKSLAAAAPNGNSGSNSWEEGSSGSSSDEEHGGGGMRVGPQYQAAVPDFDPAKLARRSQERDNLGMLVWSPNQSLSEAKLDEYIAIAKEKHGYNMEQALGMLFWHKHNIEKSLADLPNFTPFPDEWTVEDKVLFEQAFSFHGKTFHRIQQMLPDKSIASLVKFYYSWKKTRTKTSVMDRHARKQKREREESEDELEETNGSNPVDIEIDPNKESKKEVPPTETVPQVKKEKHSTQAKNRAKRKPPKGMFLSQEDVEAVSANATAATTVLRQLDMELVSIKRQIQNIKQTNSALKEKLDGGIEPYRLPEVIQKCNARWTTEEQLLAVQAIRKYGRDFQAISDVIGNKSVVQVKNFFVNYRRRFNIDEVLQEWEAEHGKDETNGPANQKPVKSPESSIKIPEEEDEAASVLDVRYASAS

Row | Substance | ratio to parent [1] | ratio to parent [2] | ratio to parent [3]
1 | FLAG-tagged wild-type Lsd1 (lysine-specific demethylase 1) (from UniProt Q6ZQ88) E413G; M448V | 0.09 | – | –
2 | FLAG-tagged wild-type Lsd1 (lysine-specific demethylase 1) (from UniProt Q6ZQ88) M448V | 0.35 | – | –
3 | FLAG-tagged wild-type Lsd1 (lysine-specific demethylase 1) (from UniProt Q6ZQ88) N535A | 1.8 | – | –

Now from value to substance:

Row | ratio to parent [1] | ratio to parent [2] | ratio to parent [3] | Substance
4 | 0.89 | – | – | FLAG-tagged wild-type Lsd1 (lysine-specific demethylase 1) (from UniProt Q6ZQ88) E413G
5 | – | 0.11 | 0.44 | endogenous wild-type Lsd1 (from UniProt Q6ZQ88) E413G; M448V

From PMC3634827
